Results taken from the supplement of paper PMC5998384.

Columns and labels:
HeLa Kyoto [1] = assay: solubility in G1/S (NP-40 vs SDS abundance) (log2 ratio); higher = more soluble; conditions: cell cycle stage: G1/S
HeLa Kyoto [2] = assay: thermal stability score vs G1/S (z-score of summed log2 fold changes over temperatures); higher = more thermally stable than in G1/S
HeLa Kyoto [3] = assay: melting temperature (median over replicates), in situ; higher = more thermally stable
HeLa Kyoto [4] = assay: solubility change mitosis vs G1/S (difference of NP-40 vs SDS log2 ratios) (log2 ratio difference); higher = more soluble in mitosis
[5] = cell cycle stage: early G1 (4.5 h after nocodazole release)
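Wherever melting temperature (median over replicates), in situ is given: HeLa Kyoto cells synchronized by double thymidine or nocodazole block, proteins quantified by TMT10plex mass spectrometry, three independent biological replicates.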
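Wherever solubility change mitosis vs G1/S (difference of NP-40 vs SDS log2 ratios) is given: synchronized HeLa Kyoto cells (double thymidine block for G1/S, nocodazole release for mitosis), protein amounts in NP-40 versus SDS lysates quantified by mass spectrometry, three biological replicates.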
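Wherever solubility in G1/S (NP-40 vs SDS abundance) is given: HeLa Kyoto cells arrested at G1/S by double thymidine block, proteins quantified by TMT10plex mass spectrometry in mild NP-40 versus SDS extracts, three biological replicates.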
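Wherever thermal stability score vs G1/S (z-score of summed log2 fold changes over temperatures) is given: synchronized HeLa Kyoto cells, proteins quantified by TMT10plex mass spectrometry, three biological replicates, mitosis taken 0.5 h after nocodazole release, G1/S directly after double thymidine block.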

Sequence	solubility in G1/S (log2) (HeLa Kyoto [1])	thermal stability score (HeLa Kyoto [2]; [5])	thermal stability score (HeLa Kyoto [2]; cell cycle stage: mitosis)	melting temperature (HeLa Kyoto [3]; cell cycle stage: G1/S) [°C]	melting temperature (HeLa Kyoto [3]; cell cycle stage: mitosis) [°C]	solubility change mitosis (log2) (HeLa Kyoto [4])
MGNRGMEELIPLVNKLQDAFSSIGQSCHLDLPQIAVVGGQSAGKSSVLENFVGRDFLPRGSGIVTRRPLILQLIFSKTEHAEFLHCKSKKFTDFDEVRQEIEAETDRVTGTNKGISPVPINLRVYSPHVLNLTLIDLPGITKVPVGDQPPDIEYQIKDMILQFISRESSLILAVTPANMDLANSDALKLAKEVDPQGLRTIGVITKLDLMDEGTDARDVLENKLLPLRRGYIGVVNRSQKDIEGKKDIRAALAAERKFFLSHPAYRHMADRMGTPHLQKTLNQQLTNHIRESLPALRSKLQSQLLSLEKEVEEYKNFRPDDPTRKTKALLQMVQQFGVDFEKRIEGSGDQVDTLELSGGARINRIFHERFPFELVKMEFDEKDLRREISYAIKNIHGVRTGLFTPDLAFEAIVKKQVVKLKEPCLKCVDLVIQELINTVRQCTSKLSSYPRLREETERIVTTYIREREGRTKDQILLLIDIEQSYINTNHEDFIGFANAQQRSTQLNKKRAIPNQGEILVIRRGWLTINNISLMKGGSKEYWFVLTAESLSWYKDEEEKEKKYMLPLDNLKIRDVEKGFMSNKHVFAIFNTEQRNVYKDLRQIELACDSQEDVDSWKASFLRAGVYPEKDQAENEDGAQENTFSMDPQLERQVETIRNLVDSYVAIINKSIRDLMPKTIMHLMINNTKAFIHHELLAYLYSSADQSSLMEESADQAQRRDDMLRMYHALKEALNIIGDISTSTVSTPVPPPVDDTWLQSASSHSPTPQRRPVSSIHPPGRPPAVRGPTPGPPLIPVPVGAAASFSAPPIPSRPGPQSVFANSDLFPAPPQIPSRPVRIPPGIPPGVPSRRPPAAPSRPTIIRPAEPSLLD [DNM2]	0.212	1.01	1.14	50.5	50	-0.144
MGPLPRTVELFYDVLSPYSWLGFEILCRYQNIWNINLQLRPSLITGIMKDSGNKPPGLLPRKGLYMANDLKLLRHHLQIPIHFPKDFLSVMLEKGSLSAMRFLTAVNLEHPEMLEKASRELWMRVWSRNEDITEPQSILAAAEKAGMSAEQAQGLLEKIATPKVKNQLKETTEAACRYGAFGLPITVAHVDGQTHMLFGSDRMELLAHLLGEKWMGPIPPAVNARL [GSTK1]	0.121	-1.28	-0.907	50.9	52	-0.098
MGQTVNEDSMDVKKENQEKTPQSSTSSVQRDDFHWEEYLKETGSISAPSECFRQSQIPPVNDFKVGMKLEARDPRNATSVCIATVIGITGARLRLRLDGSDNRNDFWRLVDSPDIQPVGTCEKEGDLLQPPLGYQMNTSSWPMFLLKTLNGSEMASATLFKKEPPKPPLNNFKVGMKLEAIDKKNPYLICPATIGDVKGDEVHITFDGWSGAFDYWCKYDSRDIFPAGWCRLTGDVLQPPGTSVPIVKNIAKTESSPSEASQHSMQSPQKTTLILPTQQVRRSSRIKPPGPTAVPKRSSSVKNITPRKKGPNSGKKEKPLPVICSTSAASLKSLTRDRGMLYKDVASGPCKIVMSTVCVYVNKHGNFGPHLDPKRIQQLPDHFGPGPVNVVLRRIVQACVDCALETKTVFGYLKPDNRGGEVITASFDGETHSIQLPPVNSASFALRFLENFCHSLQCDNLLSSQPFSSSRGHTHSSAEHDKNQSAKEDVTERQSTKRSPQQTVPYVVPLSPKLPKTKEYASEGEPLFAGGSAIPKEENLSEDSKSSSLNSGNYLNPACRNPMYIHTSVSQDFSRSVPGTTSSPLVGDISPKSSPHEVKFQMQRKSEAPSYIAVPDPSVLKQGFSKDPSTWSVDEVIQFMKHTDPQISGPLADLFRQHEIDGKALFLLKSDVMMKYMGLKLGPALKLCYYIEKLKEGKYS [SCML2]	-0.0128	4.21	8.66	44.9	49.1	0.137
MGRAGAAAVIPGLALLWAVGLGSAAPSPPRLRLSFQELQAWHGLQTFSLERTCCYQALLVDEERGRLFVGAENHVASLNLDNISKRAKKLAWPAPVEWREECNWAGKDIGTECMNFVKLLHAYNRTHLLACGTGAFHPTCAFVEVGHRAEEPVLRLDPGRIEDGKGKSPYDPRHRAASVLVGEELYSGVAADLMGRDFTIFRSLGQRPSLRTEPHDSRWLNEPKFVKVFWIPESENPDDDKIYFFFRETAVEAAPALGRLSVSRVGQICRNDVGGQRSLVNKWTTFLKARLVCSVPGVEGDTHFDQLQDVFLLSSRDHRTPLLYAVFSTSSSIFQGSAVCVYSMNDVRRAFLGPFAHKEGPMHQWVSYQGRVPYPRPGMCPSKTFGTFSSTKDFPDDVIQFARNHPLMYNSVLPTGGRPLFLQVGANYTFTQIAADRVAAADGHYDVLFIGTDVGTVLKVISVPKGSRPSAEGLLLEELHVFEDSAAVTSMQISSKRHQLYVASRSAVAQIALHRCAAHGRVCTECCLARDPYCAWDGVACTRFQPSAKRRFRRQDVRNGDPSTLCSGDSSRPALLEHKVFGVEGSSAFLECEPRSLQARVEWTFQRAGVTAHTQVLAEERTERTARGLLLRRLRRRDSGVYLCAAVEQGFTQPLRRLSLHVLSATQAERLARAEEAAPAAPPGPKLWYRDFLQLVEPGGGGSANSLRMCRPQPALQSLPLESRRKGRNRRTHAPEPRAERGPRSATHW [SEMA3B]	-0.625	4.5	7.7	55.1	57.9	-0.384
MGRLVAVGLLGIALALLGERLLALRNRLKASREVESVDLPHCHLIKGIEAGSEDIDILPNGLAFFSVGLKFPGLHSFAPDKPGGILMMDLKEEKPRARELRISRGFDLASFNPHGISTFIDNDDTVYLFVVNHPEFKNTVEIFKFEEAENSLLHLKTVKHELLPSVNDITAVGPAHFYATNDHYFSDPFLKYLETYLNLHWANVVYYSPNEVKVVAEGFDSANGINISPDDKYIYVADILAHEIHVLEKHTNMNLTQLKVLELDTLVDNLSIDPSSGDIWVGCHPNGQKLFVYDPNNPPSSEVLRIQNILSEKPTVTTVYANNGSVLQGSSVASVYDGKLLIGTLYHRALYCEL [PON2]	0.315	4.83	4.5	53.6	53.6	-0.101
